Article PMC3481213

B1: BdCAD3 (Brachypodium distachyon) (protein)
chain: MEQGKAALGWAARDASGHLSPYNFSRRVQKDDDVTIKVLFCGICHTDLHIIKNEWGNALYPIVPGHEVVGVVTDVGPGVKNFKAGETVGVGYFLDSCRTCDSCSKGHENYCPTLVLTSNGVDYDGATTQGGFSDVVVVNQDYVVRVPDTLPPDGAAPLLCAGVTVYSPMMQYGLNAPGKHLGVVGLGGLGHMAVKFGKAFGMKVTVISSSLRKREEALDRLGADDFLVSSDAEQMKAAAGAMDGIIDTVSAGHPIVPLLELLRPMGQMVVCGAPSEPLQLPAYAVITGGKRIAGNGVGSVRDCQAMLDFAGEHGITADVEVVKMDYVNTAVERLERNDVRYRFVIDVAGSLQQGGAA
B2: BdCAD5 (Brachypodium distachyon) (protein)
chain: MGSIASEERTVTGWAARDADGHLSPYTYTLRKTGPEDVLVKVLYCGICHTDIHQAKNHLGASKYPMVPGHEVVGEVVEVGGEVSKYSAGDVVGVGVIVGCCRECRPCKASVEQYCNKRIWSYNDVYTDGRPTQGGFSSAMVVDQKFVVRIPAGLAPEQAAPLLCAGVTVYSPLKHFGLMSPGLRGGILGLGGVGHMGVKVAKSMGHHVTVISSSGKKRAEAMDDLGADAYLVSSDADQMAAAADSLDYVIDTVPVKHPLEPYLSLLKMDGKLVLMGVIGEPLSFVSPMVMLGRKSITGSFIGSMEETEEVLKFCVEKGLTSQIEVVKMDYLNEALERLERNDVRYRFVVDVAGSKIEDAA

Legend:
[1] = target: Brachypodium distachyon cinnamyl alcohol dehydrogenase 5 (BdCAD5), recombinant 6xHis-tagged (Brachypodium distachyon); assay: SEC
purified protein [2] = substrate: COc1cc(/C=C/CO)ccc1O; assay: purified protein; details: co-substrate NADP+, 100 mM TRIS-HCl pH 8.8, 23 °C, n = 1
purified protein [3] = substrate: COc1cc(/C=C/C=O)ccc1O; assay: purified protein; details: co-substrate NADPH
[4] = 100 mM sodium acetate pH 5.35, 23 °C
[5] = 200 mM potassium phosphate pH 6.25, 23 °C

Molecule	percent of peak area at the dimer position [1] [%]	stoichiometry N [1]	Km (purified protein [2]) [µM]	Vmax (purified protein [2]) [µmol/min/mg]	kcat (purified protein [2]) [s⁻¹]	kcat/Km (purified protein [2]) [M⁻¹ s⁻¹]	Km (purified protein [3]; [4]) [µM]	Vmax (purified protein [3]; [4]) [µmol/min/mg]	kcat (purified protein [3]; [4]) [s⁻¹]	kcat/Km (purified protein [3]; [4]) [M⁻¹ s⁻¹]	Km (purified protein [3]; [5]) [µM]	Vmax (purified protein [3]; [5]) [µmol/min/mg]	kcat (purified protein [3]; [5]) [s⁻¹]	kcat/Km (purified protein [3]; [5]) [M⁻¹ s⁻¹]
Brachypodium distachyon cinnamyl alcohol dehydrogenase 5 (BdCAD5), recombinant 6xHis-tagged (enzyme)	24	2	–	–	–	–	–	–	–	–	–	–	–	–
B1	–	–	509.1 ± 134.0	36.7	34.3	67000	33.3 ± 3.80	9.26	8.66	260000	–	–	–	–
B2	–	–	1.44 ± 0.24	7.91	10.3	7.19e+06	–	–	–	–	3.1 ± 0.44	29.5	38.6	1.29e+07
